From paper PMC4866688, “Trypanosoma brucei DHFR-TS Revisited: Characterisation of a Bifunctional and Highly Unstable Recombinant Dihydrofolate Reductase-Thymidylate Synthase” (PLoS Neglected Tropical Diseases, 2016)

Substrate: O=c1ccn([C@H]2C[C@H](O)[C@@H](COP(=O)(O)O)O2)c(=O)[nH]1
Assay: Kinetic analysis of TS activity (substrates)
Type: biochemical, Trypanosoma brucei
Details: other: clarified E. coli lysate, spectrophotometric assay
Method: The initial characterisation of TS was also carried out using a spectrophotometric assay. Owing to the pronounced instability of the recombinant protein, clarified ThyA^- E. coli lysates were used for characterisation, where the concentration of TS was calculated based on DHFR activity. […] . Enzymatic reactions were initiated by the addition of CH2THF (200 μM, Shircks Laboratories) and initial rates of CH2THF oxidation to DHF monitored by the increase in absorbance at 340 nm (ε = 6,200 M^-1 cm^-1). This method is not suitable for determination of the Km^app for CH2THF and a radiometric method was used instead. This method measures the release of tritiated water from 5-[^3H]-dUMP (American Radiochemicals, 14.3 Ci mmol^-1). Assays (40 μl final volume) contained 200 nM TS and varying amounts of CH2THF (37.5 μM– 4.8 mM) in DHFR-assay buffer. Reactions were initiated by adding 200 μM [^3H]-dUMP (5.55 × 10^5 dpm nmol^-1) and stopped after 10 min by the addition of 20 μl trichloroacetic acid. Residual 5-[^3H]-dUMP was removed by the addition of 200 μl of 10% (w/v) activated charcoal (Sigma). Aliquots (100 μl) of the supernatants were added to 2 ml of scintillation fluid (Pico-Fluor 40™, Packard Bioscience) and radioactivity determined using a Beckmann LS 6500 Scintillation Counter. […] Protein concentrations were determined using the BioRad protein assay based on the method of Bradford. […]

B1: T. brucei TS (Tsf-TbDHFR-TS) (Trypanosoma brucei brucei) (protein)
chain: MLSLTRILRKKIPVHELAGKISRPPLRPFSVVVASDEKGGIGDGGTIPWEIPEDMQYFRRVTTNLRGKNVKPSPSKRNAVVMGRKTWDSLPPKFRPLSNRLNVVLSRSATKEQLLAGIPDPIKRAEAANDVVAVNGGLEDALRMLVSKEHTSSIETVFCIGGGTIYKQALCAPCVNVLQAIHRTVVRPASNSCSVFFDIPAAGTKTPEGLELVRESITDERVSTGAGGKKYQFEKLVPRNSEEEQYLNLVGRIIDEGCTKCDRTGVGTRSLFGAQMRFSLRNNRLPLLTTKRVFWRGVCEELLWFLRGETNAKLLSDKGIHIWDGNGSRAFLDSRGLTDYDEMDLGPVYGFQWRHFGADYISCKVDSEGKGVDQIANIVKSLIENPDDRRMICTAWNPAALPRMALPPCHMMAQFYVSNGELSCMLYQRSCDMGLGVPFNIASYALLTFLMAKASGLRPGELVHTLGDAHVYSNHVEPCRKQLKRVPRPFPFIVFKQDKEFLEDFQESDIEVIDYSPYPVISMEMAV
notes: The open reading frame of DHFR-TS was amplified by PCR from T. brucei gDNA using specific oligonucleotides; made in house; host or cells: thyA- E. coli derived from BL21 Star (DE3); unpurified clarified lysate
B1 gave a Km of 8.2 ± 0.6 µM.
